According to patent publication US12006368 (SURROZEN OPERATING, dated 2024):
Positions count from the first letter of the chain named. Values belong to the binder of their own block, whether it stands above or below them.

Columns and labels:
[1] = target: Fzd1 cysteine rich domain (CRD), C-terminally biotinylated (human, UniProt Q9UP38 101-230); assay: BLI
Procedure: (§1) Binding kinetics of antibody fragments to a variety of Fzd cysteine rich domain (CRD) protein targets (Fzd1, Fzd2, Fzd3, Fzd4, Fzd5, Fzd6, Fzd7, Fzd8, Fzd9 and/or Fzd10 CRDs) was determined by bio-layer interferometry (BLI) using Octet Red 96 (PALL ForteBio, Fremont, CA) instruments at 30° C., 1000 rpm with streptavidin (SA) biosensors. C-terminal biotinylated Fzd CRD recombinant protein was diluted to 20 nM in the running buffer (PBS, 0.05% Tween-20, 0.5% BSA, pH 7.2) and captured to the SA biosensor until coupling length reached 0.2 nm. Following capture of the Fzd CRD, the SA biosensor with captured biotinylated-Fzd CRD was dipped into wells containing the relevant antibody fragment at […] (0, 1.37, 4.12, 12.4, 37, 111.1, 333.3, 1000 nM) in running buffer, plus a well with only running buffer as a reference channel. […] was determined by global fitting, 1:1 binding model according to manufacturer recommended settings.
(§2) Table 1B provides clone IDs, the sequence identifier number of the antibody heavy chain fragment and/or light chain fragment, if present, for illustrative clones. In certain embodiments, the Fzd binding domain is an Fab or was derived from an Fab, so the heavy chain of Table 1B includes VH and CH1 sequence, but not CH2 or CH3 sequences. In certain embodiments, the Fzd binding domain is a VHH or sdAb® or was derived from a VHH or sdAb, so Table 1B includes the VHH domain. […] The Kd values were determined by BLI as described above. Blank entries denote that the binding to the specific Fzd receptor has not yet been determined. The entry of "n.b." indicates no binding.

[2] = target: Fzd2 cysteine rich domain (CRD), C-terminally biotinylated (human, UniProt Q14332 24-155); assay: BLI
Procedure: as §1, §2

B1: 004S-A12 (Fab, V domains shown)
VH: QVQLVQSGAEVKKPGASVKVSCKASGYTFTNNFMHWVRQAPGQGLEWMGRINPNSGGTNYAQKFQGRVTMTRDTSTSTVYMELSSLRSEDTAVYYCARGQGYSSGWYRGDAFDIWGQGTTVTVSS
VL: not shown
binding result [1]: no binding (tested: 1000 nM) | binding result [2]: no binding (tested: 1000 nM)

B2: 004S-A11 (Fab, V domains shown)
VH: QVQLVQSGAEVKKPGSSVKVSCKASGGTFSSYAISWVRQAPGQGLEWMGRIIPILGIANYAQKFQGRVTITADESTSTAYMELSSLRSEDTAVYYCARESVNNYYYMDVWGKGTTVTVSS
VL: not shown
binding result [1]: no binding (tested: 1000 nM) | binding result [2]: no binding (tested: 1000 nM)

B3: 005S-D08 (Fab, V domains shown)
VH: EVQLVESGGGLVQPGGSLRLSCAASGFAFSSHWMHWVRQAPGKGLEWVSAIDGSGGSTYYADSVKGRFTISRDNSKNTLYLQMNSLRAEDTAVYYCARDRQLGWAHWYFDLWGRGTLVTVSS
VL: not shown
binding result [1]: no binding (tested: 1000 nM) | binding result [2]: no binding (tested: 1000 nM)

B4: 005S-D11 (Fab, V domains shown)
VH: QVQLVQSGAEVKKPGASVKVSCKASGYTFTNNFMHWVRQAPGQGLEWMGWINPNSGDTKFAPKFQGRVTMTRDTSTSTVYMELSSLRSEDTAVYYCAREANYDILTGYIRPDAFDIWGQGTTVTVSS
VL: EIVLTQSPATLSVSPGERATLSCRASQSLRSKLAWYQQKPGQAPRLLIYGASTRATGIPARFSGSGSGTEFTLTISSLQSEDFAVYYCQQYANSPWTFGPGTKVDIKR
binding result [1]: no binding (tested: 1000 nM) | binding result [2]: no binding (tested: 1000 nM)

B5: 004S-B08 (Fab, V domains shown)
VH: QVQLVQSGAEVKKPGASVKVSCKASGYTFTNNFMHWVRQAPGQGLEWMGRINPNSGGTNYAQKFQGRVTMTRDTSTSTVYMELSSLRSEDTAVYYCASQNYYGSGSYPGFDYWGQGTLVNVSS
VL: not shown
binding result [1]: no binding (tested: 1000 nM) | binding result [2]: no binding (tested: 1000 nM)

B6: 004S-F10 (Fab, V domains shown)
VH: EVQLVESGGGLVQPGGSLRLSCAASGFTFSDHYMSWVRQAPGKGLEWVALVGYDGSQQFYGESVKGRFTISRDNSKNTLYLQMNSLRAEDTAVYYCNTGIPMLYWGQGTLVTVSS
VL: not shown
binding result [1]: no binding (tested: 1000 nM) | binding result [2]: no binding (tested: 1000 nM)

B7: 005S-E09 (Fab, V domains shown)
VH: EVQLVQSGGGLVQPGGSLRLSCAASGFNLRRYNMNWVRQAPGKGLEWVSRISNSGSLVYYADSVKGRFTISRDNSKNTLYLQMNSLRAEDTAVYYCARDADSSGYYRYDAFDIWGQGTMVTVSS
VL: EIVLTQSPATLSVSPGERATLSCRASQSVSSNLAWYQQKPGQAPRLLIYDASNRATGIPARFSGSGSGTEFTLTISSLQSEDFAVYYCQQRNNWLYTFGQGTKVEIKR
binding result [1]: no binding (tested: 1000 nM) | binding result [2]: no binding (tested: 1000 nM)

B11: 014S-B04 (Fab, V domains shown)
VH: QVQLVQSGAEVKKPGASVKVSCKASGYIFTDYYMHWVRQAPGQGLEWMGWMNPNSGNTGYAQKFQGRVTMTRDTSTSTVYMELSSLRSEDTAVYYCARGGSRYDFWSGHWYFDLWGRGTLVTVSS
VL: DIQMTQSPSSLSASVGDRVTITCRASQGISNYLAWYQQKPGKAPKLLIYAASSLQSGVPSRFSGSGSGTDFTLTISSLQPEDFATYYCQQSYSTPFTFGQGTKVEIKR
binding result [1]: no binding (tested: 1000 nM) | binding result [2]: no binding (tested: 1000 nM)

B12: 005S-E12 (Fab, V domains shown)
VH: QVQLVQSGAEVKKPGASVKVSCKASGYIFTDYYMHWVRQAPGQGLEWMGVIFPVYPTPDYAQKFQGRVTMTRDTSTSTVYMELSSLRSEDTAVYYCARGGSTGYYGMDVWGQGTTVTVSS
VL: DIQMTQSPSSLSASVGDRVTITCRASQSVGRWMAWYQQKPGKAPKLLIYAASSLQSGVPSRFSGSGSGTDFTLTISSLQPEDFATYYCQQANTFPFTFGPGTKVDIKR
binding result [1]: no binding (tested: 1000 nM) | binding result [2]: no binding (tested: 1000 nM)

B14: 014S-G06 (Fab, V domains shown)
VH: EVQLVESGGGLVKPGGSLRLSCAASGFTFSSYAMHWVRQAPGKGLEWVSAIGAGGGTYYADSVKGRFTISRDDSKNTLYLQMNSLKTEDTAVYYCARDAYNWFDPWGQGTLVTVSS
VL: not shown
binding result [1]: no binding (tested: 1000 nM) | binding result [2]: no binding (tested: 1000 nM)

B15: 017S-B09 (VHH)
VHH: AVQQVESGGGLVQPGGSLRLSCAASGFTLDYYAISWFRQAPGKKRELVADITSGGSTNYADSVKGRFTISRDNAKNTIYLQMNSLKPEDTAVYFCNAVTYNGYTIWGQGTQVTVSS
binding result [1]: no binding (tested: 1000 nM) | binding result [2]: no binding (tested: 1000 nM)

B17: 005S-H10 (Fab, V domains shown)
VH: QVQLVQSGAEVKKPGSSVKVSCKASGGAFSTSSISWVRQAPGQGLEWVGRIIPVLGTANYAQKFQGRVTITADESTSTAYMELSSLRSEDTAVYYCAKGGWRSSFDPWGQGTLVTVSS
VL: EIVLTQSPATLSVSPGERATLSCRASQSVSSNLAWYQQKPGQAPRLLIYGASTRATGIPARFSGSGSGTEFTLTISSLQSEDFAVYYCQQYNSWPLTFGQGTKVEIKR
binding result [1]: no binding (tested: 1000 nM) | binding result [2]: no binding (tested: 1000 nM)

B19: 003S-D10 (Fab, V domains shown)
VH: EVQLVESGGGLVKPGGSLRLSCAASGFNFGIYSMTWVRQAPGKGLEWISYISGDSGYTNYADSVKGRFTISRDDSKNTLYLQMNSLKTEDTAVYYCARVGPGGWFDPWGQGTLVTVSS
VL: B11 VL with N31S, S53N, Q55L, S56G, S91T, F96W
binding result [1]: no binding (tested: 1000 nM) | binding result [2]: no binding (tested: 1000 nM)

Further lines, results first:

binding result [1]: no binding (tested: 1000 nM) | binding result [2]: no binding (tested: 1000 nM)
B8: 005S-A07 (Fab, V domains shown)
VH: QVQLVQSGAEVKKPGSSVKVSCKASGFTFTGSAVQWVRQAPGQGLEWVGGILPIYGTTKYAQKFQGRVTITADESTSTAYMELSSLRSEDTAVYYCARGARLYGFDYWGQGTLVTVSS
VL: B7 VL with S31R, D50G, N53T, N92S, L95P, Y96I, K103R, V104L

binding result [1]: no binding (tested: 1000 nM) | binding result [2]: no binding (tested: 1000 nM)
B9: 005S-B11 (Fab, V domains shown)
VH: QVQLVQSGAEVKKPGASVKVSCKASGYTFTSYDINWVRQAPGQGLEWMGGFDPEDGETIYAQKFQGRVTMTRDTSTSTVYMELSSLRSEDTAVYYCAKAGDWGLYGMDVWGQGTMVTVSS
VL: B12 VL with V29I, G30S, M33L, A91T

binding result [1]: no binding (tested: 1000 nM) | binding result [2]: no binding (tested: 1000 nM)
B10: 005S-B07 (Fab, V domains shown)
VH: QVQLVQSGAEVKKPGASVKVSCKASGFTFTSSAVQWVRQAPGQGLEWMGWMNPNSGNTGYAQKFQGRVTMTRDTSTSTVYMELSSLRSEDTAVYYCARGRGQQWLTGYYGMDVWGQGTTVTVSS
VL: B11 VL with N31S, Y32A, A50G, S53T, Q89L, S91D, S93N, T94Y, Q100P, E105D

binding result [1]: no binding (tested: 1000 nM) | binding result [2]: no binding (tested: 1000 nM)
B13: 014S-B06 (Fab, V domains shown)
VH: EVQLVQSGGGLVKPGGSLRLSCAASGFTFSSYSMNWVRQAPGKGLEWVSYIENDGSITTYADSVKGRFTISRDDSKNTLYLQMNSLKTEDTAVYYCARAPYYYGSGSLFRLDYWGQGTLVTVSS
VL: not shown

binding result [1]: no binding (tested: 1000 nM) | binding result [2]: no binding (tested: 1000 nM)
B16: 014S-A07 (Fab, V domains shown)
VH: EVQLVESGGGLVKPGGSLRLSCAASGFTFSNAQMSWVRQAPGKGLEWVSAIGTGGGTYYADSVKGRFTISRDDSKNTLYLQMNSLKTEDTAVYYCAREGSYYDWYFDLWGRGTLVTVSS
VL: EIVLTQSPATLSVSPGERATLSCRASQNIGSRLAWYQQKPGQAPRLLIYGASNRASGIPARFSGSGSGTEFTLTISSLQSEDFAVYYCQQYNHWPPLFTFGPGTKVDIKR

binding result [1]: no binding (tested: 1000 nM) | binding result [2]: no binding (tested: 1000 nM)
B18: 014S-G02 (Fab, V domains shown)
VH: QVQLVQSGAEVKKPGASVKVSCKASGYTFTSYYMNWVRQAPGQGLEWMGIISPSGGSTSYAQKFQGRVTMTRDTSTSTVYMELSSLRSEDTAVYYCARWGDYGDLYYFDYWGQGTLVTVSS
VL: B11 VL with N31S, Y32A, A51T, S53T, S91V, Y92N, T94Y, F96P, V104L
